Results: the RNAGym collection of RNA variant scans (doi:10.7554/elife.80360)

B1: CPEB3 Ribozyme (parent)
chain: GGGGGCCACAGCAGAAGCGUUCACGUCGCGGCCCCUGUCAGAUUCUGGUGAAUCUGCGAAUUCUGCUGU

Variants of: B1
Test: self-cleavage, relative activity (ratio to wild type); higher = more cleavage; co-transcriptional

Going from A10C G17C to A10C G17A, the self-cleavage rises from 0.0999 to 0.48.

Compared with A10C G19A, C9G G28U is lower in self-cleavage: 0.162 for the first, 0.104 for the second.

Going from C9U C32A to C9U C32G, the self-cleavage falls from 1.02 to 0.838.

Going from C9G C34G to C9U U67A, the self-cleavage rises from 0.994 to 1.01.

Going from C9U U67G to C9U U67C, the self-cleavage rises from 1.01 to 1.02.

First: A10C C12A
Second: A10C C12U
The self-cleavage of the first is lower: 0.439 for the first, 0.882 for the second.

First: A10C C12G
Second: C9G G41U
The self-cleavage of the first is lower: 0.659 for the first, 0.888 for the second.

Compared with C9G G41C, C9U U38C is higher in self-cleavage: 0.964 for the first, 1.02 for the second.

Going from C9U U38G to C9U U38A, the self-cleavage rises from 0.306 to 0.931.

Going from A10C G14A to A10C G14U, the self-cleavage rises from 0.363 to 0.411.

Compared with C9G G31C, C9G G31U is higher in self-cleavage: 0.363 for the first, 0.97 for the second.

Compared with C9G C22U, C9G C22G is lower in self-cleavage: 0.445 for the first, 0.257 for the second.

Going from A10C C32U to A10C C32A, the self-cleavage falls from 1.04 to 0.908.

Going from C9G G65C to C9G G65U, the self-cleavage rises from 0.585 to 0.65.

Compared with C9G G65A, C9U G14A is lower in self-cleavage: 0.968 for the first, 0.878 for the second.

First: C9U A51G
Second: C9U A51C
The self-cleavage of the first is lower: 1.02 for the first, 1.03 for the second.

First: C9U G41A
Second: C9U C39A
The self-cleavage of the first is higher: 0.923 for the first, 0.912 for the second.

First: C9U C39G
Second: C9U A23U
The self-cleavage of the first is lower: 0.962 for the first, 1.01 for the second.

First: C9U A23G
Second: C9U A23C
The self-cleavage of the first is higher: 1.01 for the first, 0.982 for the second.

Compared with C9G U26C, C9G U26G is lower in self-cleavage: 0.964 for the first, 0.93 for the second.

First: C9G U26A
Second: A10C C33G
The self-cleavage of the first is lower: 0.912 for the first, 0.988 for the second.

First: A10C C33A
Second: C9G A52G
The self-cleavage of the first is lower: 0.965 for the first, 1.05 for the second.

C9U C45U and C9U C45A are the same in self-cleavage: 1.01 for the first, 1.01 for the second.

First: A10C U38C
Second: A10C C27A
The self-cleavage of the first is higher: 1 for the first, 0.666 for the second.

Compared with A10C C27U, C9U U44A is higher in self-cleavage: 0.508 for the first, 1.02 for the second.

Compared with C9U U44C, A10C is higher in self-cleavage: 0.997 for the first, 1.01 for the second.

Compared with C9U U64C, C9U U64A is higher in self-cleavage: 0.999 for the first, 1.04 for the second.

First: C9U U64G
Second: A10C C22G
The self-cleavage of the first is higher: 0.981 for the first, 0.141 for the second.

First: A10C C22U
Second: C9G C12G
The self-cleavage of the first is lower: 0.351 for the first, 0.878 for the second.

First: C9G C12U
Second: C9G C12A
The self-cleavage of the first is higher: 1 for the first, 0.789 for the second.

Compared with C9G U21C, C9G U21G is lower in self-cleavage: 0.943 for the first, 0.696 for the second.

First: C9G U21A
Second: A10C G30C
The self-cleavage of the first is higher: 0.998 for the first, 0.923 for the second.

Compared with A10C G30U, A10C G30A is higher in self-cleavage: 0.753 for the first, 0.994 for the second.

First: C9G C27U
Second: C9G A10G
The self-cleavage of the first is lower: 0.888 for the first, 1 for the second.

Compared with C9G A10C, C9G A10U is higher in self-cleavage: 0.634 for the first, 0.987 for the second.

First: C9G C35U
Second: C9G C35G
The self-cleavage of the first is higher: 0.964 for the first, 0.758 for the second.

First: C9U U69A
Second: C9U U69G
The self-cleavage of the first is lower: 1.03 for the first, 1.07 for the second.

Going from C9U C18U to C9U C18A, the self-cleavage falls from 0.927 to 0.355.

First: C9U C18G
Second: A10C C57G
The self-cleavage of the first is lower: 0.283 for the first, 0.292 for the second.

Compared with A10C C57U, A10C C57A is higher in self-cleavage: 0.275 for the first, 0.351 for the second.

Going from C9G A23U to C9G A23G, the self-cleavage falls from 0.978 to 0.976.

Going from A10C U21A to C9G C32A, the self-cleavage rises from 0.959 to 0.983.

Compared with C9G C32G, C9G C32U is higher in self-cleavage: 0.665 for the first, 0.992 for the second.

First: C9U U62G
Second: A10C A40C
The self-cleavage of the first is higher: 0.987 for the first, 0.378 for the second.

Going from A10C A40U to A10C G58C, the self-cleavage rises from 0.867 to 0.965.

First: A10C G58U
Second: C9U G47A
The self-cleavage of the first is lower: 0.999 for the first, 1.06 for the second.

A10C G68U and A10C G68A are the same in self-cleavage: 1.03 for the first, 1.03 for the second.

First: A10C G68C
Second: A10C U46A
The self-cleavage of the first is higher: 1.04 for the first, 1.03 for the second.

First: A10C U46G
Second: C9U C24A
The self-cleavage of the first is higher: 0.953 for the first, 0.827 for the second.

Compared with C9U C24G, C9U C24U is higher in self-cleavage: 0.535 for the first, 0.888 for the second.

First: A10C C45U
Second: A10C C45A
The self-cleavage of the first is higher: 1 for the first, 0.97 for the second.

Compared with C9U G50C, C9U G50U is lower in self-cleavage: 1.02 for the first, 1 for the second.

First: C9U U46A
Second: C9U U46C
The self-cleavage of the first is lower: 0.964 for the first, 1.02 for the second.

Going from C9U U46G to C9G G11A, the self-cleavage falls from 1.04 to 0.882.

Going from A10C A15C to A10C A15U, the self-cleavage falls from 0.771 to 0.77.

First: A10C A15G
Second: C9U G19U
The self-cleavage of the first is higher: 0.947 for the first, 0.855 for the second.

First: C9U G19A
Second: C9U U20A
The self-cleavage of the first is higher: 0.249 for the first, 0.148 for the second.

Going from C9U U20C to A10C A42U, the self-cleavage rises from 0.186 to 0.921.

Going from C9G C24A to C9G C24U, the self-cleavage rises from 0.872 to 0.9.

Compared with C9U U21C, C9G C18G is lower in self-cleavage: 0.999 for the first, 0.2 for the second.

Compared with C9G C18A, C9G U38A is higher in self-cleavage: 0.256 for the first, 0.988 for the second.

Compared with C9G U38G, A10C C63U is higher in self-cleavage: 0.343 for the first, 1.02 for the second.

Compared with A10C C63A, C9U C54G is higher in self-cleavage: 0.676 for the first, 0.994 for the second.

First: C9U C54A
Second: A10C C24U
The self-cleavage of the first is higher: 0.978 for the first, 0.891 for the second.

Going from A10C C24A to C9G C33G, the self-cleavage rises from 0.738 to 0.925.

First: C9G C33U
Second: C9U G58C
The self-cleavage of the first is higher: 1.04 for the first, 1.02 for the second.

First: C9U A40G
Second: C9U A40U
The self-cleavage of the first is higher: 1.03 for the first, 0.915 for the second.

Compared with C9G G47C, A10C C29A is lower in self-cleavage: 1.01 for the first, 0.596 for the second.

Compared with A10C C29G, C9U U26C is higher in self-cleavage: 0.165 for the first, 0.999 for the second.

Going from C9U A10G to C9U A10U, the self-cleavage falls from 1.04 to 0.987.

Going from C9U A10C to C9A U67C, the self-cleavage falls from 1.06 to 1.

Going from C9A U67G to A10C A13G, the self-cleavage falls from 1.05 to 0.911.

First: A10C A13U
Second: A10C A13C
The self-cleavage of the first is lower: 0.484 for the first, 0.638 for the second.

Compared with A10C G47A, A10C G47U is lower in self-cleavage: 1.04 for the first, 1.01 for the second.

Compared with C9U G28A, C9U G28C is lower in self-cleavage: 0.227 for the first, 0.173 for the second.

Compared with C9G G68C, C9G G68A is higher in self-cleavage: 0.997 for the first, 1.05 for the second.

Compared with C9G G68U, C9G C66G is lower in self-cleavage: 1.02 for the first, 0.905 for the second.

Compared with C9G C66U, C9U C34G is higher in self-cleavage: 0.967 for the first, 1.01 for the second.

Going from C9U C34A to C9G U69A, the self-cleavage rises from 1.01 to 1.04.

Going from C9G U69G to C9U A13C, the self-cleavage falls from 1.05 to 0.925.

Compared with C9U A13U, C9U A52U is higher in self-cleavage: 0.966 for the first, 0.996 for the second.

First: C9U A52C
Second: C9G U62C
The self-cleavage of the first is higher: 1.01 for the first, 0.96 for the second.

Going from C9G U62G to C9G U62A, the self-cleavage rises from 0.849 to 0.977.

Work on C9U A16C yielded a self-cleavage of 0.531.
